Source: the supplement of paper PMC7877785
± gives the uncertainty stated by the source.

Assay: self-splicing fitness, log relative to wild type (ln ratio); higher = more splicing; Tetrahymena group I intron in knt gene, E. coli kanamycin selection, DiMSum; sequences stand for … in CUCUCU…GGAGGGAAAAGUUAUCAGGCAUGCACCUGGUAGCUAGUCUUUAAACCAAUAGAUUGCAUCGGUUUAAAAGGCAAGACCGUCAAAUUGCGGGAAAGGGGUCAACAGCCGUUCAGUACCAAGUCUCAGGGGAAACUUUGAGAUGGCCUUGCAAAGGGUAUGGUAAUAAGCUGACGGACAUGGUCCUAACCACGCAGCCAAGUCCUAAGUCAACAGAUCUUCUGUUGAUAUGGAUGCAGUUCACAGACUAAAUGUCGGUCGGGGAAGAUGUAUUCUUCUCAUAAGAUAUAGUCGGACCUCUCCUUAAUGGGAGCUAGCGGAUGAAGUGAUGCAACACUGGAGCCGCUGGGAACUAAUUUGUAUGCGAAAGUAUAUUGAUUAGUUUUGGAGUACUCGUGGUCG
Procedure, shortened: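 Six replicate transformations of E. coli BL21(DE3) with a pET-22b(+) library were grown overnight at 37°C or 30°C. The library randomised all eight P1ex-region intron nucleotides, the intron lying in the knt kanamycin-resistance gene, and plates were LB agar with or without 25 μg/mL kanamycin plus 100 μg/mL carbenicillin, 50 μM IPTG and 0.2% rhamnose. Pooled colonies were amplicon-sequenced on an Illumina HiSeq 2500, and fitness is the DiMSum error-weighted combination of wild-type-normalised replicate fold changes, kanamycin versus none.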

| Sequence | self-splicing fitness (ln) (30 °C) | self-splicing fitness (ln) (37 °C) |
| --- | --- | --- |
| GCAUAGCAAUAUUACGGUGG | -2.55 ± 0.15 | -1.31 ± 0.13 |
| GCAUAGCAAUAUUACGUAUA | -3.23 ± 0.29 | -1.52 ± 0.24 |
| GCAUAGCAAUAUUACGUAUC | -3.24 ± 0.21 | -2.49 ± 0.22 |
| GCAUAGCAAUAUUACGUGAC | -2.49 ± 0.2 | -0.677 ± 0.14 |
| GCAUAGCAAUAUUACGUGUC | -3.89 ± 0.2 | -1.96 ± 0.2 |
| GCAUAGCAAUAUUACGUUCU | -2 ± 0.096 | -0.899 ± 0.1 |
| GCAUAGCAAUAUUACGUUUA | -2.47 ± 0.16 | -1.61 ± 0.12 |
| GCAUAGCAAUAUUACGUUUU | -3.61 ± 0.19 | -1.82 ± 0.19 |
| GCCAAGCAAUAUUACGAGCA | -1.82 ± 0.14 | -1.11 ± 0.15 |
| GCCAAGCAAUAUUACGCAAG | -2.89 ± 0.17 | -1.7 ± 0.2 |
| GCCAAGCAAUAUUACGCACG | -2.84 ± 0.23 | -1.08 ± 0.16 |
| GCCAAGCAAUAUUACGCAUA | -1.3 ± 0.09 | -0.709 ± 0.085 |
| GCCAAGCAAUAUUACGCCAG | -3.37 ± 0.21 | -2.88 ± 0.24 |
| GCCAAGCAAUAUUACGCCCU | -1.4 ± 0.13 | -0.504 ± 0.16 |
| GCCAAGCAAUAUUACGCCUC | -1.32 ± 0.1 | -0.316 ± 0.1 |
| GCCAAGCAAUAUUACGCGAU | -3.73 ± 0.14 | -2.64 ± 0.18 |
| GCCAAGCAAUAUUACGCGCA | -0.985 ± 0.12 | 0.097 ± 0.11 |
| GCCAAGCAAUAUUACGCGCU | -1.33 ± 0.063 | -0.352 ± 0.082 |
| GCCAAGCAAUAUUACGCGGG | -3.54 ± 0.23 | -2.37 ± 0.18 |
| GCCAAGCAAUAUUACGCUAA | -0.682 ± 0.099 | -1.37 ± 0.13 |
| GCCAAGCAAUAUUACGCUCU | -0.234 ± 0.1 | -0.0648 ± 0.12 |
| GCCAAGCAAUAUUACGUAAC | -1.35 ± 0.087 | -0.157 ± 0.11 |
| GCCAAGCAAUAUUACGUUUA | -2.97 ± 0.19 | -2.28 ± 0.18 |
| GCCAAGCAAUAUUACGUUUC | -2.86 ± 0.18 | -0.805 ± 0.12 |

| Sequence | self-splicing fitness (ln) (30 °C) | self-splicing fitness (ln) (37 °C) |
| --- | --- | --- |
| GCCCAGCAAUAUUACGACAC | -1.64 ± 0.081 | -0.294 ± 0.11 |
| GCCCAGCAAUAUUACGACAU | -1.515 ± 0.012 | -0.82 ± 0.032 |
| GCCCAGCAAUAUUACGCAUU | -0.902 ± 0.05 | -0.248 ± 0.063 |
| GCCCAGCAAUAUUACGCCAA | -3.11 ± 0.14 | -1.71 ± 0.1 |
| GCCCAGCAAUAUUACGCCAU | -2.56 ± 0.22 | -3.35 ± 0.37 |
| GCCCAGCAAUAUUACGCCUC | -0.831 ± 0.075 | 0.0191 ± 0.11 |
| GCCCAGCAAUAUUACGCGCA | -1.44 ± 0.11 | -0.0956 ± 0.1 |
| GCCCAGCAAUAUUACGCGCC | -4.19 ± 0.42 | -0.613 ± 0.19 |
| GCCCAGCAAUAUUACGCUGU | -0.516 ± 0.063 | -0.482 ± 0.092 |
| GCCCAGCAAUAUUACGCUUG | -3.45 ± 0.2 | -1.79 ± 0.17 |
| GCCCAGCAAUAUUACGGAAA | -0.768 ± 0.075 | -0.234 ± 0.084 |
| GCCCAGCAAUAUUACGGAUC | -0.448 ± 0.044 | -0.289 ± 0.056 |
| GCCCAGCAAUAUUACGGCGC | -3.02 ± 0.17 | -1.87 ± 0.16 |
| GCCCAGCAAUAUUACGGCUA | -1.1 ± 0.095 | -0.549 ± 0.1 |
| GCCCAGCAAUAUUACGGCUC | -0.866 ± 0.11 | -0.219 ± 0.14 |
| GCCCAGCAAUAUUACGGGCG | -2.53 ± 0.091 | -1.7 ± 0.099 |
| GCCCAGCAAUAUUACGGUUG | -2.99 ± 0.12 | -1.95 ± 0.11 |
| GCCCAGCAAUAUUACGUCCG | -3.33 ± 0.26 | -2.83 ± 0.21 |
| GCCCAGCAAUAUUACGUUAG | -3.81 ± 0.14 | -2.26 ± 0.16 |
| GCCGAGCAAUAUUACGACAU | -2.286 ± 0.016 | -1.27 ± 0.034 |
| GCCGAGCAAUAUUACGACGA | -1.34 ± 0.11 | -0.792 ± 0.098 |
| GCCGAGCAAUAUUACGACGC | -2.86 ± 0.23 | -1.08 ± 0.21 |
| GCCGAGCAAUAUUACGACGG | -3.78 ± 0.23 | -2.76 ± 0.28 |
